The text below walks through data of patent US11306156.

As usually defined, the Kd is the free concentration of one partner at which half of the binding sites on the other are occupied at equilibrium, for simple one-to-one binding.

For test [1], the target named is D3H44 light chain S131T_L135F_S176F_T178F (Kabat), N-terminal HA or FLAG tag. Description: LCCA co-expression, competing light chain m34, L1:L2 DNA 1:9 normalized to 1:1, SPR tag read-out.
Test [2] shares this target. Description: LCCA co-expression, competing light chain m34, L1:L2 DNA 1:3 normalized to 1:1, SPR tag read-out.
The target in test [3] is D3H44 light chain F116A_L135V (Kabat), N-terminal HA or FLAG tag. Description: LCCA co-expression, competing light chain m33, L1:L2 DNA 1:3 normalized to 1:1, SPR tag read-out.
Test [4] has the same target. In words: LCCA co-expression, competing light chain m33, L1:L2 DNA 1:9 normalized to 1:1, SPR tag read-out.
For test [5], the target named is D3H44 light chain L135W_S176L (Kabat), N-terminal HA or FLAG tag. In words: LCCA co-expression, competing light chain m34, L1:L2 DNA 1:9 normalized to 1:1, SPR tag read-out.
The target in test [6] is D3H44 light chain F116A_L135V (Kabat), N-terminal HA or FLAG tag. In words: LCCA co-expression, competing light chain m35, L1:L2 DNA 1:3 normalized to 1:1, SPR tag read-out.
Test [7] concerns the target D3H44 light chain L135W_S176L (Kabat), N-terminal HA or FLAG tag. In words: LCCA co-expression, competing light chain m34, L1:L2 DNA 1:3 normalized to 1:1, SPR tag read-out.
In test [8] the target is D3H44 light chain F116A_L135V (Kabat), N-terminal HA or FLAG tag. In words: LCCA co-expression, competing light chain m35, L1:L2 DNA 1:9 normalized to 1:1, SPR tag read-out.
In test [9] the target is D3H44 light chain Q124R_Q160K_T178R (Kabat), N-terminal HA or FLAG tag. Description: LCCA co-expression, competing light chain m39, L1:L2 DNA 1:3 normalized to 1:1, SPR tag read-out.
For test [10] the target is unchanged. In words: LCCA co-expression, competing light chain m40, L1:L2 DNA 1:3 normalized to 1:1, SPR tag read-out.
For test [11] the target is unchanged. In words: LCCA co-expression, competing light chain m37, L1:L2 DNA 1:3 normalized to 1:1, SPR tag read-out.
The target in test [12] is D3H44 light chain Q124E_T178E (Kabat), N-terminal HA or FLAG tag. Description: LCCA co-expression, competing light chain m38, L1:L2 DNA 1:3 normalized to 1:1, SPR tag read-out.
Test [13] addresses D3H44 light chain Q124E_T180E (Kabat), N-terminal HA or FLAG tag. The test is described as above.
In test [14] the target is D3H44 light chain Q124E_Q160E_T180E (Kabat), N-terminal HA or FLAG tag. The test is described as above.
Test [15] shares this target. Description: LCCA co-expression, competing light chain m38, L1:L2 DNA 1:9 normalized to 1:1, SPR tag read-out.
Test [16] addresses D3H44 light chain Q124R_Q160K_T178R (Kabat), N-terminal HA or FLAG tag. Description: LCCA co-expression, competing light chain m39, L1:L2 DNA 1:9 normalized to 1:1, SPR tag read-out.
Test [17] concerns the target D3H44 light chain Q124E_T180E (Kabat), N-terminal HA or FLAG tag. Description: LCCA co-expression, competing light chain m36, L1:L2 DNA 1:9 normalized to 1:1, SPR tag read-out.
For test [18], the target named is D3H44 light chain S131K (Kabat), N-terminal HA or FLAG tag. In words: LCCA co-expression, competing light chain m37, L1:L2 DNA 1:3 normalized to 1:1, SPR tag read-out.
For test [19] the target is unchanged. In words: LCCA co-expression, competing light chain m37, L1:L2 DNA 1:9 normalized to 1:1, SPR tag read-out.
Test [20] addresses D3H44 light chain Q124E_T180E (Kabat), N-terminal HA or FLAG tag. Description: LCCA co-expression, competing light chain m36, L1:L2 DNA 1:3 normalized to 1:1, SPR tag read-out.
Test [21] addresses tissue factor (TF) antigen (UniProt P13726). Description: SPR (ProteOn XPR36), Fab captured on anti-penta-His surface, TF as analyte, 1:1 fit; estimated value from a Fab differing only in the L chain tag (HA or FLAG).
For test [22] the target is unchanged. In words: SPR (ProteOn XPR36), Fab captured on anti-penta-His surface, TF as analyte; reference wild-type D3H44 Fab; estimated value from a Fab differing only in the L chain tag.
Test [23] shares this target. Description: SPR (ProteOn XPR36), Fab captured on anti-penta-His surface, TF as analyte, 1:1 fit; batch C (stored about 2 months at 4 C).
The target is the same in test [24]. Description: SPR (ProteOn XPR36), Fab captured on anti-penta-His surface, TF as analyte; reference wild-type D3H44 Fab; batch C.
Test [25] concerns the target tissue factor (TF) antigen (human (from the antibody's name 'anti-human tissue factor'; not stated for the antigen lot in the assay)) (UniProt P13726). In words: SPR (ProteOn XPR36), Fab captured on anti-penta His, TF analyte; against wild-type D3H44 Fab; batch C by the KD cell's +.
The target is the same in test [26]. Description: SPR (ProteOn XPR36): Fab captured via His tag on anti-penta His surface, TF injected, 1:1 fit; batch C (+).
The target in test [27] is tissue factor (TF) antigen (UniProt P13726). In words: SPR as for KD; reference: wild-type D3H44 Fab; estimated (*) from the Fab that differs only in the L chain tag.
Test [28] shares this target. In words: SPR, ProteOn XPR36; His-tagged Fab captured on anti-penta-His, TF injected; 1:1 fit. In general terms: SPR reads the build-up and loss of mass on a sensor chip optically.
The target is the same in test [29]. In words: SPR, ProteOn XPR36; His-tagged Fab captured on anti-penta-His, TF injected; 1:1 fit; estimated (*) from the Fab that differs only in the L chain tag.
Test [30] has the same target. In words: SPR as for KD; reference: wild-type D3H44 Fab.
Test [31] shares this target. In words: SPR (ProteOn XPR36), Fab captured on anti-penta-His surface, TF injected as analyte, 1:1 fit; marked * (estimated from a Fab that differs only in the L chain tag); reference wild-type D3H44 Fab.
For test [32] the target is unchanged. In words: SPR (ProteOn XPR36), Fab captured on anti-penta-His surface, TF injected as analyte, 1:1 fit; marked * (estimated from a Fab that differs only in the L chain tag).
The target is the same in test [33]. In words: SPR (ProteOn XPR36), Fab captured on anti-penta-His surface, TF injected as analyte, 1:1 fit; the row's other values are marked * (estimated); reference wild-type D3H44 Fab.
Test [34] addresses tissue factor (TF) (human) (UniProt P13726). In words: SPR (ProteOn), Fab captured on anti-penta His, TF analyte, 1:1 fit; estimated from Fab differing only in L chain tag.

Regarding “D3H44 Fab heavy chain A139G_F174V_V190A (Kabat), C-terminal ABD2-His6 tag”, the H1L1:H1L2 normalized median ratio in test [1] was 60 of 100; in test [2] it was 51 of 100; in [3] it was 49 of 100; in [4] it was 40 of 100. In addition, the H1L1:H1L2 normalized median scalar value ln(r1/f1) in [1] was found to be 0.42; in test [2] it was 0.03.
With “D3H44 Fab heavy chain A139G_V190A (Kabat), C-terminal ABD2-His6 tag”, the H1L1:H1L2 normalized median ratio in test [5] is 72 of 100; in test [6], 68 of 100; in test [7] it was 32 of 100; in test [8], 28 of 100. In addition, the H1L1:H1L2 normalized median scalar value ln(r1/f1) in test [5] was 0.94; in [7] it was -0.77.
Consider “D3H44 Fab heavy chain A139W_S188L (Kabat), C-terminal ABD2-His6 tag”, for which the H2L2:H2L1 normalized median ratio in test [1] was 45 of 100; in test [5], 25 of 100; in test [6], 66 of 100; in test [2] it was 41 of 100; in [7] it was 34 of 100; in [8], 75 of 100. Besides, the H2L2:H2L1 normalized median ratio was 59 of 100 in [3] and 55 of 100 in [4].
Consider “D3H44 Fab heavy chain L143E_K145T (Kabat), C-terminal ABD2-His6 tag”, for which the H1L1:H1L2 normalized median ratio is 72 of 100 in test [9]; 59 of 100 in test [10]; 59 of 100 in test [11]; 41 of 100 in test [12]; 41 of 100 in test [13]; 28 of 100 in [14]. Also, the values for the H1L1:H1L2 normalized median scalar value ln(r1/f1) in [9], in test [10] and in [11] were 0.96, 0.36 and 0.38, respectively.
Consider “D3H44 Fab heavy chain L143E_K145T_Q179D (Kabat), C-terminal ABD2-His6 tag”, for which the H1L1:H1L2 normalized median ratio is 84 of 100 in [9], 12 of 100 in test [15], 88 of 100 in [16] and 16 of 100 in test [14]. Further, the H1L1:H1L2 normalized median scalar value ln(r1/f1) in test [9] amounted to 1.68; in [16], 1.97.
Take “D3H44 Fab heavy chain Q179K (Kabat), C-terminal ABD2-His6 tag”: the H2L2:H2L1 normalized median ratio is 13 of 100 in test [9]; 4 of 100 in [10]; 88 of 100 in test [17]; 4 of 100 in test [11]; 2 of 100 in test [18]; 88 of 100 in [15]. Further, the H2L2:H2L1 normalized median ratio in test [19] is 12 of 100; in test [16], 12 of 100; in test [20], 98 of 100; in test [12], 96 of 100; in [13], 96 of 100; in test [14] it was 87 of 100.
In the case of “D3H44 Fab heterodimer H1 L143D_K145T_Q179E / L1 T178R”, in test [21], the Kd is 0.28 nM. For the same substance, the Change in median values of KD of h1l1 Fab heterodimer compared to wild type (-(log(KD design)-log(KD wt))) in test [22] was -0.25.
In the case of “D3H44 Fab heterodimer H1 L143E_K145T_Q179D / L1 T178R”, the Kd in test [23] and in test [21] was 0.11 nM in each case. Also, the Change in median values of KD of h1l1 Fab heterodimer compared to wild type (-(log(KD design)-log(KD wt))) in [24] and in test [22] was 0.17 each time.
As for “D3H44 Fab heterodimer, H1 Q39R_Q179K / L1 Q38E_Q124E_Q160E_T180E (H1L1 Fab of LCCA set 9827)”, the Change in median values of KD of h1l1 Fab heterodimer compared to wild type (-(log(KD design)-log(KD wt))) in [25] was -0.03. In test [26], this substance gave a Kd of 0.17 nM.
As for “D3H44 Fab heterodimer, H1L1 of LCCA Sets # 9705, 9706, 9704 and 9703 (H1 L143E_K145T_S188L; L1 Q124R)”, the change in median KD compared to wild type, -(log(KD design)-log(KD wt)) in test [27] and in test [30] was -0.12 throughout. Also, the Kd in test [28] and in test [29] was 0.21 nM throughout.
In the case of “D3H44 H1L1 Fab heterodimer, H1 L124E_L143E_K145T, L1 Q124K_V133G_S176R_T178K”, the Change in median KD of h1l1 Fab heterodimer compared to wild type (-(log(KD design)-log(KD wt))) (log(KD) difference) in test [31] and in test [33] was -0.12 each time. The Kd in [32] was 0.21 nM.
For the substance “H1L1 Fab heterodimer of LCCA set 9585 (D3H44 Fab; H: L143E_K145T; L: Q124R)”, in [34], the Kd was 0.28 nM and the change in KD vs wild type, -(log(KD design)-log(KD wt)) was -0.25.
